This is an account of results in US20040259122A1 (MICHIGAN STATE UNIVERSITY, published 2004).

Residue numbers refer to the chain shown, from its start.

Sequences and labels used below:
T1: Tfb3 (activation domain fusion prey) (UniProt Q03290 1-321)
T1 construct: not shown: not described
T1 sequence (looked up): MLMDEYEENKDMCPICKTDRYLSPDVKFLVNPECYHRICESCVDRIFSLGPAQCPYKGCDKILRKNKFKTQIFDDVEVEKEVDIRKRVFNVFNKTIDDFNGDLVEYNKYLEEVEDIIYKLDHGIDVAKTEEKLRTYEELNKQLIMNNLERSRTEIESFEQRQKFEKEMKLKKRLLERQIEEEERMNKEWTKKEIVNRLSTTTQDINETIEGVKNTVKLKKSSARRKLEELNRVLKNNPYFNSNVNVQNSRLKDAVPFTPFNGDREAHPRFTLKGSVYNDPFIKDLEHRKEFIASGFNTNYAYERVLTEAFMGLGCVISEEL

T2: Whi2 (activation domain fusion prey) (UniProt P12611 1-486)
T2 construct: not shown: not described
T2 sequence (looked up): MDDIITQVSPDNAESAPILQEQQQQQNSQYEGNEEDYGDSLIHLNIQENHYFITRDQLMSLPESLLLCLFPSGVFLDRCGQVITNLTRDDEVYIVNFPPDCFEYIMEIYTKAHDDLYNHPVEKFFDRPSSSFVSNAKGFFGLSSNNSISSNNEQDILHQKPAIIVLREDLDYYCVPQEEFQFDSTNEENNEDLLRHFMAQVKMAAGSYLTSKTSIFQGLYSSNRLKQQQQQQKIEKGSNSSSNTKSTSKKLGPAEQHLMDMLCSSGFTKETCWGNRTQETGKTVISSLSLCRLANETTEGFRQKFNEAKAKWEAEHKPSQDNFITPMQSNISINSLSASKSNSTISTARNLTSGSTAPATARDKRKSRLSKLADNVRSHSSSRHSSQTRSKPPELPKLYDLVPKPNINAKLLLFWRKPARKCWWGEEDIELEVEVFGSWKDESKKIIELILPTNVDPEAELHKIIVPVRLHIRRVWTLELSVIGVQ

T3: Ssn8 (activation domain fusion prey) (UniProt P47821 1-323)
T3 construct: also called Srb11; not shown: not described
T3 sequence (looked up): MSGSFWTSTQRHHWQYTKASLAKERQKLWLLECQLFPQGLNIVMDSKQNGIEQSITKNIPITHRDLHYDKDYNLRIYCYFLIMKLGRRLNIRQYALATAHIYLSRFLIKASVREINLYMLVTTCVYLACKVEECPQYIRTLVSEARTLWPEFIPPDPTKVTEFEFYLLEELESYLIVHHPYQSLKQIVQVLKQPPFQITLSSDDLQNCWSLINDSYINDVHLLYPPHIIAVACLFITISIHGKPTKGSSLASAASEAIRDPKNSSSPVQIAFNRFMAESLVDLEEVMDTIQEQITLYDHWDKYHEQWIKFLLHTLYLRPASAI

T4: Fcp1 (activation domain fusion prey) (UniProt Q03254 1-732)
T4 construct: not shown: not described
T4 sequence (looked up): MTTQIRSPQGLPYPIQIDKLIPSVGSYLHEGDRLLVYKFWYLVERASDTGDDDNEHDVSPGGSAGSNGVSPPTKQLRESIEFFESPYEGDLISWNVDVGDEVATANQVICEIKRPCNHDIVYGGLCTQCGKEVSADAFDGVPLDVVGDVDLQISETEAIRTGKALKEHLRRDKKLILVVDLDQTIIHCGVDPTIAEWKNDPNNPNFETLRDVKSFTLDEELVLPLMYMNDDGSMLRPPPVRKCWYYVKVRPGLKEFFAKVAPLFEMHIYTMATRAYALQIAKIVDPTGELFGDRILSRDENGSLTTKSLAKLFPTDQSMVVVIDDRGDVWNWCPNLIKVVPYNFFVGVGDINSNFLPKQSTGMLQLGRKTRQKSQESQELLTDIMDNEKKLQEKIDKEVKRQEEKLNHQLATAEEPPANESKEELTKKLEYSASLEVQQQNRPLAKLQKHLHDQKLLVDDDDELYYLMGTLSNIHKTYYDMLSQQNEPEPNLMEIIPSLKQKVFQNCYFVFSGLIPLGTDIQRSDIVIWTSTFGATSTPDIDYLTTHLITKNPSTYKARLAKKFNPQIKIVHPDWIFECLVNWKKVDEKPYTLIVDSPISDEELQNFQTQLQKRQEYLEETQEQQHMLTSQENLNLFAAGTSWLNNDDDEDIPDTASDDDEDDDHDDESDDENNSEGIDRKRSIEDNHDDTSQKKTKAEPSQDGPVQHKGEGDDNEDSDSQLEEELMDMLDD

T5: YDR428c (activation domain fusion prey) (UniProt Q04066 1-261)
T5 construct: not shown: not described
T5 sequence (looked up): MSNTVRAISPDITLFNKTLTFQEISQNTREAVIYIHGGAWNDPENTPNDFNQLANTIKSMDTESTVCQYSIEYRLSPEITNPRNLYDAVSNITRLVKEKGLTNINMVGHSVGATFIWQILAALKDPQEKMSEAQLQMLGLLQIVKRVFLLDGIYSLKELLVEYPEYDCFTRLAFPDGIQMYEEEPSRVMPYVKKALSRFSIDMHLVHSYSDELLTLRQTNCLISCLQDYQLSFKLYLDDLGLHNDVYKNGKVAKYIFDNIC

B1: CTD fused to the wildtype Kin28 (pMK500) (other)
chain: MKLLSSIEQACDICRLKKLKCSKEKPKCAKCLKNNWECRYSPKTKRSPLTRAHLTEVESRLERLEQLFLLIFPREDLDMILKMDSLQDIKALLTGLFVQDNVNKDAVTDRLASVETDMPLTLRQHRISATSSSEESSNKGQRQLTVSNYLFDDEDTPPNPKKEIELENLYFQGEFQYSPTSPSYSLTSPSYSPTSPSLTTMAMKVNMEYTKEKKVGEGTYAVVYLGCQHSTGRKIAIKEIKTSEFKDGLDMSAIREVKYLQEMQHPNVIELIDIFMAYDNLNLVLEFLPTDLEVVIKDKSILFTPADIKAWMLMTLRGVYHCHRNFILHRDLKPNNLLFSPDGQIKVADFGLARAIPAPHEILTSNVVTRWYRAPELLFGAKHYTSAIDIWSVGVIFAELMLRIPYLPGQNDVDQMEVTFRALGTPTDRDWPEVSSFMTYNKLQIYPPPSRDELRKRFIAASEYALDFMCGMLTMNPQKRWTAVQCLESDYFKELPPPSDPSSIKIRNVMAIPGGGRIFYPYDVPDYAGYPYDVPDYAGSYPYDVPDYAAQCGRSS
modifications: CTD phosphorylated at the fifth residue (Ser5) by the tethered wildtype Kin28
notes: also called CTD-Kin28 (wildtype); phosphorylated CTD
B2: CTD fused to the mutant Kin28 (pDG502) (other)
chain: B1 chain with E256Q
notes: also called CTD-Kin28 mutant
B3: Kin28 alone bait (pMK498) (other)
chain: MKLLSSIEQACDICRLKKLKCSKEKPKCAKCLKNNWECRYSPKTKRSPLTRAHLTEVESRLERLEQLFLLIFPREDLDMILKMDSLQDIKALLTGLFVQDNVNKDAVTDRLASVETDMPLTLRQHRISATSSSEESSNKGQRQLTVSNYLFDDEDTPPNPKKEIELENLYFQGEFQLTTMAMKVNMEYTKEKKVGEGTYAVVYLGCQHSTGRKIAIKEIKTSEFKDGLDMSAIREVKYLQEMQHPNVIELIDIFMAYDNLNLVLEFLPTDLEVVIKDKSILFTPADIKAWMLMTLRGVYHCHRNFILHRDLKPNNLLFSPDGQIKVADFGLARAIPAPHEILTSNVVTRWYRAPELLFGAKHYTSAIDIWSVGVIFAELMLRIPYLPGQNDVDQMEVTFRALGTPTDRDWPEVSSFMTYNKLQIYPPPSRDELRKRFIAASEYALDFMCGMLTMNPQKRWTAVQCLESDYFKELPPPSDPSSIKIRNVMAIPGGGRIFYPYDVPDYAGYPYDVPDYAGSYPYDVPDYAAQCGRSS

One assay has as its target T1, Tfb3 (activation domain fusion prey). Put plainly: yeast two-hybrid, growth in the presence of 3-AT. The procedure: (§1) Identification of proteins that interact specifically with the phosphorylated CTD. […] Proteins that interact specifically with the CTD-Kin28 (wildtype) but neither of the other two baits are considered phosphorylated CTD-interacting proteins. Yeast strains containing one of the three baits and a variety of preys (activation domain fusion proteins) were tested for their ability to grow in the presence of different concentration of 3-AT. The ability to grow in such medium indicates stable interactions between the bait(s) and the prey(s). The following proteins (numbered 1-7) are considered phosphorylated CTD-interacting proteins: Fcp1 (a phosphatase known to act on phosphorylated CTD), Ssn8 (or Srb11, a component of the RNA polymerase II holoenzyme), Tfb3 (a component of the RNA polymerase II holoenzyme), Whi2 (a protein involved in cellular growth and a component of a protein phosphatase complex containing the Psr1 catalytic subunit), and three novel proteins (YMR181c, YPL229w, and YDR428c) whose functional links to CTD phosphorylation are novel. In addition, previously known (i.e. Ccl1 and Pcl10) and unknown (YDL100c) Kin28-interacting proteins were also identified in this screen (A-C). Several putative phosphorylated CTD interacting proteins are not labeled due to the current lack of the sequence information.
As for B1, the binding result is listed as “binds”.
Consider B2, for which the binding result is on record as “no binding”.
Same read-out and setting: as for B3, the entry is “no binding”.

The target in another assay is T2, Whi2 (activation domain fusion prey). Nature of the assay: yeast two-hybrid, growth in the presence of 3-AT. The procedure: as §1
As for B1, the binding result is on record as “binds”.
With B2, the binding result was “no binding”.
On to B3, for which the binding result is “no binding”.

Another assay addresses T3, Ssn8 (activation domain fusion prey). Nature of the assay: yeast two-hybrid, growth in the presence of 3-AT. As to the method: as §1
With B1, the binding result is “binds”.
Same read-out and setting: then B2, with “no binding”; and B3, with “no binding”.

A further assay concerns the target T4, Fcp1 (activation domain fusion prey). Nature of the assay: yeast two-hybrid, growth in the presence of 3-AT. As to the method: as §1
As to B1, the binding result is on record as “binds”.
On the same count and under the same terms, as for B2, the entry is “no binding”.
Still for that read-out and setting: as for B3, the entry is “no binding”.

Another assay addresses T5, YDR428c (activation domain fusion prey). Put plainly: yeast two-hybrid, growth in the presence of 3-AT. As to the method:
as §1
B1: the binding result is on record as “binds”.
Same read-out and setting: as for B2, the entry is “no binding”.
Same read-out and setting: as for B3, the entry is “no binding”.
